In this assay the target is T1, VP16-AR containing the residues 37 to 919 (human), P10275.
T1 chain: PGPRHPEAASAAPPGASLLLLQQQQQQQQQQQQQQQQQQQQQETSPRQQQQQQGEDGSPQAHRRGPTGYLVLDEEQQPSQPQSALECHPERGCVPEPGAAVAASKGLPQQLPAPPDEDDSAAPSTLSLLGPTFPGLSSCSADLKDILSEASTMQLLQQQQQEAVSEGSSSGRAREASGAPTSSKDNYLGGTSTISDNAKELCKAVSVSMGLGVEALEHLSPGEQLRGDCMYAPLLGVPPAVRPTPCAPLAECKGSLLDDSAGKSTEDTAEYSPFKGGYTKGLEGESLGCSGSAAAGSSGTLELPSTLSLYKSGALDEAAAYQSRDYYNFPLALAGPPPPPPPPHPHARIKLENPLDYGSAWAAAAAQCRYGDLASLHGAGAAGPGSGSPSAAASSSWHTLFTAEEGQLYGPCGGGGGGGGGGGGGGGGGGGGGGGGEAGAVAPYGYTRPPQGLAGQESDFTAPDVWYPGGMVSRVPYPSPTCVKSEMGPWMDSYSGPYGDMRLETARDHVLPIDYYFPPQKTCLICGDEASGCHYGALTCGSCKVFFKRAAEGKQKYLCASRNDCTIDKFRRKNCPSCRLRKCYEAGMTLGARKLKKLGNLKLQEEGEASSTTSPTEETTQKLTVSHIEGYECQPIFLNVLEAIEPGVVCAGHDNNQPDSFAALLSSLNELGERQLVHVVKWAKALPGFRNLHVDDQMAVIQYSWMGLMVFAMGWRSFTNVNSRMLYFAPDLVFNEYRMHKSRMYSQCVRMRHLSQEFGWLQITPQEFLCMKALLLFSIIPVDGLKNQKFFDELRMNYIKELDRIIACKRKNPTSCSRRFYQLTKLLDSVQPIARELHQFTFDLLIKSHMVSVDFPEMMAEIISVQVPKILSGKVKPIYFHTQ
The assay can be described thus: cell-based or functional assay.

Consider HPTHSSRLWELLMEATPTM (modifications not checked) [D30 peptide (…), LXXLL motif peptide], for which the two-hybrid peptide assay (pG4-LUC reporter, PC-3 cells, with against without 10 nM DHT) was found to be 350 fold.

(Values after patent US20080050387A1, “Non-Androgen Dependent Roles for Androgen Receptor and Non-Androgen Related Inhibitors of Androgen Receptor” (priority 2003, published 2008).)
